System: microbead-induced glaucoma mice
Assay type: in vivo, mouse
Description: For whole mounted retina staining, mouse eyeballs were fixed in 4% paraformaldehyde for 3 hours at room temperature or overnight at 4° C. fridge after sacrificing mice with carbon dioxide (CO2). Then retinas were dissected out and incubated with blocking buffer (3% donkey serum+1% BSA+0.1% Triton+0.1% Tween in 1×PBS) for 1-3 h RT. Then retinas were subjected to immunolabeling by incubation with primary antibody (Table 1) overnight at 4° C. After washing three times by washing buffer (0.1% Triton-100 in PBS), retinas were incubated with secondary antibody at room temperature for 2 hrs. After rinsing retina three times in washing buffer for 5-10 min on shaker, mount slide with Fluoroshield Mounting Medium with DAPI (Abcam, Cat. No. ab104139). Visualize under microscope (Leica, SP8). Secondary antibody: Streptavidin, Alexa Fluor 546 conjugate (1:1000, S11225, Invitrogen), Streptavidin, Alexa Fluor 488 conjugate (1:1000, S11223, Invitrogen), Cy2 Donkey Anti-rabbit (1:1000, 711-225-152, Jackson ImmunoResearch), Cy3 Donkey Anti-mouse (1:1000, 715-165-150, Jackson ImmunoResearch), Cy3 Donkey Anti-goat (1:1000, 705-165-147, Jackson ImmunoResearch).
Total RNA was extracted from retinas of adult mice or purified retinal microglial cells using RNeasy Plus Mini kit (Qiagen, 74134) or RNeasy Micro kit (Qiagen, 74004) following manufacturer's instruction. The RNA was reversely transcribed using Takara PrimeScript™ RT Master Mix (Takara Bio, RR036A). A mixture of master mix contained cDNA, 2× Master Mix from KAPA SYBR Fast qPCR kit and […] of specific primers was used to detect specific mRNA expression level using the Mastercycler ep realplex real-time PCR system (Eppendorf, Westbury, NY). The temperature of initial denaturation was set at 95° C. for 2 mins followed by 45 cycles of 15 seconds denaturation (95° C.), 15 seconds annealing (59° C.), and 20 seconds extension (68° C.), and lastly holding at 4° C. Relative amount of specific mRNA transcript was presented in fold changes by normalization to the expression level of the housekeeping gene glyceraldehyde 3-phosphate dehydrogenase (GAPDH). Expression was analyzed using the 2−ΔΔCt method. All primers were synthesized by Integrated DNA Technologies (USA).
Elevated IOP was induced unilaterally in adult mice (10-12 weeks old) as described previously^21. Briefly, the mice were anesthetized by i.p. injection of ketamine (120 mg/kg)/xylazine (20 mg/kg) mixture using 25-gauge needle. The pupil was dilated with tropical application of 1% Tropicamide followed by proparacaine HCl (0.5%; Baush & Lomb Incorporated, Tampa, FL) to numb the eye. An entry on the corneal was generated by a 30-gauge needle, and a small air bubble was injected into anterior chamber via a glass micropipette which was connected with a Hamilton syringe. 2 μl solution of 10 μm microspheres (9.0×10^7 beads/ml sterile saline; Thermo Fisher Scientific, Cat. No. F8833) was injected into anterior chamber with care to avoid damaging the iris and the lens. The micropipette will be withdrawn slowly after delivery of microbeads. Antibiotic ointment will be applied topically on the cornea after the injection, and then leave the operated mice to recover on a warm pad and monitored every 15 minutes until awake and fully sternal.
Mice were anesthetized by isoflurane inhalation (2-4%; Webster Veterinary, Sterling, MA) delivered in 100% Oxygen with a precision Vaporizer. The IOP was measured by TonoLab tonometer (Colonial Medical Supply) before and post-MB injection. An average of 6 IOP readings will be taken as one reading. At least […] readings of IOP level will be taken per mouse eye, and the mean of 3 readings represents the IOP level of a mouse eye. Baseline level of IOP in anesthetized mice was measured before induction of elevated IOP. Then the IOP was measured twice a week after microbeads injection induced IOP elevation. The IOP was measured at the same time in the morning to minimize the circadian variation. […]

[1] = 14 days post glaucoma induction
[2] = intravitreal at day 3, 10 and 17 post IOP elevation

B1: IGFBPL1: insulin-like growth factor binding protein like protein 1; recombinant protein (R&D system, 4130-BL) (protein)
chain: LGLRDAGRRHPECSPCQQDRCPAPSPCPAPWISARDECGCCARCLGAEGASCGGPVGSRCGPGLVCASRASGTAPEGTGLCVCAQRGAVCGSDGRSYSSICALRLRARHAPRAHHGHLHKARDGPCEFAPVVLMPPRDIHNVTGTQVFLSCEVKAVPTPVITWKKVKHSPEGTEGLEELPGDHVNIAVQVRGGPSDHETTSWILINPLRKEDEGVYHCHAANAIGEAQSHGTVTVLDLNRYKSLYSSVPGDLL
4- and 8-weeks post glaucoma induction
  Contrast sensitivity (CS) and visual acuity (VA) by optomotor response: restored CS and VA
[1]
  Expression of pro-inflammatory cytokines (C1q, Tnfα, Il-1β, Il-1α) in glaucoma retina: remarkably reduced
  Level of activated microglia markers (Iba-1, Ym-1, Nox-2, Cd163) in retina by qPCR: dramatically down-regulate
Day 14 post glaucoma induction
  Reactive astrocyte number and GFAP level in retina: significantly restored
[2]
  RGC quantification compared with baseline: no significant difference with baseline
  RGCs loss and dysfunction from glaucomatous damages: significantly prevented RGCs loss and dysfunction
Intravitreal at day 3 and 10, 2 wks post glaucoma-induced injury
  IBA-1+ microglia activation (morphology, cell density) in retina: reverse activated microglia into resting state
mouse, in vivo
  pSTR amplitude (ERG) compared with baseline: no significant difference with baseline
